Changes are numbered by the printed parent chain. Numbers in names are those of the source. Where two headings read alike, the source gives them in different places.
Tests used:
[1] = biological target: T1, CD16 V158 (FcγRIIIA) on Jurkat reporter cells (human, UniProt P08637 17-254); test: cell-based or functional assay
[2] = biological target: T2, CD16 F158 (FcγRIIIA) on Jurkat reporter cells (human, UniProt P08637 17-254); test: cell-based or functional assay
[3] = biological target: T3, human CD163 domain 1-9, recombinant, immobilized on a CM5 sensor chip (human, UniProt Q86VB7 42-1050, limits assumed); test: SPR (Biacore T200), human CD163 domain 1-9 immobilised on CM5 chip, antibody injected, 1:1 kinetic fit
T3 construct: the whole entry is named; also called immobilized CD163
T3 sequence (Q86VB7 42-1050 limits assumed): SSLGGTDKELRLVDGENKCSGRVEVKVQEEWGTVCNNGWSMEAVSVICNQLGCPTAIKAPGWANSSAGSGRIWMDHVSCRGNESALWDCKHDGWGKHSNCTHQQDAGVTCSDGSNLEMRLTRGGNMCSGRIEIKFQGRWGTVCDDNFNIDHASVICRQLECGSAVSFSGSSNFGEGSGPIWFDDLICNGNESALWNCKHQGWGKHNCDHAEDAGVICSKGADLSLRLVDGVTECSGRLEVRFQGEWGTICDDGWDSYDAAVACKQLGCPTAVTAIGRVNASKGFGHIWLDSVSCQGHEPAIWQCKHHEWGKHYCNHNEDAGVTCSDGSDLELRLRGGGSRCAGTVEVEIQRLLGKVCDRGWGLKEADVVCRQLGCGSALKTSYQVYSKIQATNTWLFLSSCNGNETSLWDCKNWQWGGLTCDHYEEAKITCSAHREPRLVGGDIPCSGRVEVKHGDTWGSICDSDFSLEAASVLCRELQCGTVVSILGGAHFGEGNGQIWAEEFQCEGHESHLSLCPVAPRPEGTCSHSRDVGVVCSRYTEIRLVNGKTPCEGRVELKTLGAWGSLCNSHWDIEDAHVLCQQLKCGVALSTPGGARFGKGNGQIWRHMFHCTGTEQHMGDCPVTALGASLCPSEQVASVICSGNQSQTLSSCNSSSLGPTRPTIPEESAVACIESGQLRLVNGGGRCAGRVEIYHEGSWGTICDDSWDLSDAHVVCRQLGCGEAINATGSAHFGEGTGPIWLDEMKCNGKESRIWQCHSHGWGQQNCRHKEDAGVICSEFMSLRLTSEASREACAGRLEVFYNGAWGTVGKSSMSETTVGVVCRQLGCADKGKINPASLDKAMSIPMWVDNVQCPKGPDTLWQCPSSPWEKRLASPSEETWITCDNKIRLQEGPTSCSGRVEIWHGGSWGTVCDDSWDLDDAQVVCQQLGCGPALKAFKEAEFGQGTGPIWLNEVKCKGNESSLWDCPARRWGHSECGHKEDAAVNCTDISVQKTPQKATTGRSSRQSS

[4] = biological target: T1, CD16 V158 (FcγRIIIA) on Jurkat reporter …; test: cell-based or functional assay; remark: listed apart in the source
[5] = biological target: T2, CD16 F158 (FcγRIIIA) on Jurkat reporter …; test: cell-based or functional assay; remark: listed apart in the source
[6] = biological target: full length human CD163 on cells (human, UniProt Q86VB7 42-1156); test: cell-based or functional assay
Chain of full length human CD163 on cells (Q86VB7 42-1156 limits assumed): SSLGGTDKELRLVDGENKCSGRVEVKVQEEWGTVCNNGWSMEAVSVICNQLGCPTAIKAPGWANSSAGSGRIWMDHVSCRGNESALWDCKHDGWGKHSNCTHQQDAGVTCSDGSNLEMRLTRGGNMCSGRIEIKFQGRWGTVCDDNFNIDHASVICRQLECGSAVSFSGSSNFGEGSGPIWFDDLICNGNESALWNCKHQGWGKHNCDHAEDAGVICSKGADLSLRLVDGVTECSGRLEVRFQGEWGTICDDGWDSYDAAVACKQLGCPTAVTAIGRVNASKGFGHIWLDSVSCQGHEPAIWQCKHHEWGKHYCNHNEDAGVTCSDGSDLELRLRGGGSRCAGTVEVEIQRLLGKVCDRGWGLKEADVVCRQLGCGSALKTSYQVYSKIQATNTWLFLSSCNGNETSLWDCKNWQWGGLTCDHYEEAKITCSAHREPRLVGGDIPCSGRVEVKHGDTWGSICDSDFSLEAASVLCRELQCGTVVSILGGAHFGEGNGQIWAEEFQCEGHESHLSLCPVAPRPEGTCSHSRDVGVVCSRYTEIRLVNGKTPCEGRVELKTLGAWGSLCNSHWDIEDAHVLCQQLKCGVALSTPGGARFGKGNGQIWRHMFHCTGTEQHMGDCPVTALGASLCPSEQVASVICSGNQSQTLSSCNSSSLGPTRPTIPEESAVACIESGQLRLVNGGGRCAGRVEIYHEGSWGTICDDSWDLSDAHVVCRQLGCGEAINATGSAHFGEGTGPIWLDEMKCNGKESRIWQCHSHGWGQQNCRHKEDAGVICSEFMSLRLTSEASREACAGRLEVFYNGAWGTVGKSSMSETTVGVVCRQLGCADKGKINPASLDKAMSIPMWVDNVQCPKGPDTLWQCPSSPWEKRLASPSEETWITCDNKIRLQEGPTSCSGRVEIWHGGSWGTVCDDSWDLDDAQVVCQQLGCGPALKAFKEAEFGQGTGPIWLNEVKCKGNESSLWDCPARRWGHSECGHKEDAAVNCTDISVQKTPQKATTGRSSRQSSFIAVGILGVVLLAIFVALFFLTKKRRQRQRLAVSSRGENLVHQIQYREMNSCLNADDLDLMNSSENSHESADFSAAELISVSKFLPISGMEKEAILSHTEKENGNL

[7] = biological target: T3, human CD163 domain 1-9, recombinant, …; test: SPR (Biacore T200), human CD163 domain 1-9 immobilised on CM5 chip, antibody injected, 1:1 kinetic fit; remark: listed apart in the source

T2 sequence (P08637 17-254): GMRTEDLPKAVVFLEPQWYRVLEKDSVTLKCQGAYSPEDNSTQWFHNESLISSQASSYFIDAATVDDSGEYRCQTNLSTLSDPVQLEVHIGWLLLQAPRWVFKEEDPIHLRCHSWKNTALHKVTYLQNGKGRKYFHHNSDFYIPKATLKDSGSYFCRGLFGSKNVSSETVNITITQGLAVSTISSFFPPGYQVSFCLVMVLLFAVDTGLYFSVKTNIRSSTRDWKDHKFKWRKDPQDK
T1 sequence (P08637 17-254 F176V): as the sequence (P08637 17-254) above, with F160V counted along it

B1: OS000 (antibody)
heavy: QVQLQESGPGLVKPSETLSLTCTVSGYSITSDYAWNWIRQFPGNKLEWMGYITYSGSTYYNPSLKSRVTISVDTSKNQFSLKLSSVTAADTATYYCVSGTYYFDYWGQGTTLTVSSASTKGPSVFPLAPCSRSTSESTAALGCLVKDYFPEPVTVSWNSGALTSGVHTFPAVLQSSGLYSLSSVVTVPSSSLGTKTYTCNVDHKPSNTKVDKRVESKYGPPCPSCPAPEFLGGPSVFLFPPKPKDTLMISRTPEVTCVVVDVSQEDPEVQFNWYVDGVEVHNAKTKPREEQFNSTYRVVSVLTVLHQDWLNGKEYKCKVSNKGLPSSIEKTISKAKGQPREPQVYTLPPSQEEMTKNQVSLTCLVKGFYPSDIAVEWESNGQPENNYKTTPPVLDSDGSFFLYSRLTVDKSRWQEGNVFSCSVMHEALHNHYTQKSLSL
light: DIVMTQSPSSLSASVGDRVTITCRASQSVSSDVAWFQQKPGKSPKPLIYYASNRYSGVPSRFSGSGSGTDFTLTISSLQAEDFAVYFCGQDYTSPRTFGGGTKLEIKRTVAAPSVFIFPPSDEQLKSGTASVVCLLNNFYPREAKVQWKVDNALQSGNSQESVTEQDSKDSTYSLSSTLTLSKADYEKHKVYACEVTHQGLSSPVTKSFNRGEC
Q: Which results are given for B1?
A: Relative EC50 ADCC V158 (high); target cells FlpIn293-hCD163 [1]: 0 relative (EC50 OS001/EC50 construct); Relative EC50 ADCC F158 (low); target cells FlpIn293-hCD163 [2]: 0 relative (EC50 OS001/EC50 construct)

B2: OS004 (antibody, human IgG1, kappa)
heavy: QVQLQESGPGLVKPSETLSLTCTVSGYSITSDYAWNWIRQFPGNKLEWMGYITYSGSTYYNPSLKSRVTISVDTSKNQFSLKLSSVTAADTATYYCVSGTYYFDYWGQGTTLTVSSASTKGPSVFPLAPSSKSTSGGTAALGCLVKDYFPEPVTVSWNSGALTSGVHTFPAVLQSSGLYSLSSVVTVPSSSLGTQTYICNVNHKPSNTKVDKKVEPKSCDKTHTCPPCPAPELLGGPSVFLFPPKPKDTLMISRTPEVTCVVVDVSHEDPEVKFNWYVDGVEVHNAKTKPREEQYNYARVVSVLTVLHQDWLNGKEYKCKVSNKALPAPIAATISKAKGQPREPQVYTLPPSRDELTKNQVSLTCLVKGFYPSDIAVEWESNGQPENNYKTTPPVLDSDGSFFLYSKLTVDKSRWQQGNVFSCSVMHEALHNHYTQKSLSLSPGK
light: B1 light
Q: For B2, which “Relative EC50 ADCC V158 (high); target cells FlpIn293-hCD163” value (“Relative EC50 ADCC V158 (high)” for short) [1] is on record?
A: Its value is 1.6 relative (EC50 OS001/EC50 construct).

Q: What about the “Relative EC50 ADCC F158 (low); target cells FlpIn293-hCD163” value (shortened to “Relative EC50 ADCC F158 (low)”) [2] of the same binder?
A: The value was 3.5 relative (EC50 OS001/EC50 construct).

B3: OS010 (antibody, human IgG1, kappa)
heavy: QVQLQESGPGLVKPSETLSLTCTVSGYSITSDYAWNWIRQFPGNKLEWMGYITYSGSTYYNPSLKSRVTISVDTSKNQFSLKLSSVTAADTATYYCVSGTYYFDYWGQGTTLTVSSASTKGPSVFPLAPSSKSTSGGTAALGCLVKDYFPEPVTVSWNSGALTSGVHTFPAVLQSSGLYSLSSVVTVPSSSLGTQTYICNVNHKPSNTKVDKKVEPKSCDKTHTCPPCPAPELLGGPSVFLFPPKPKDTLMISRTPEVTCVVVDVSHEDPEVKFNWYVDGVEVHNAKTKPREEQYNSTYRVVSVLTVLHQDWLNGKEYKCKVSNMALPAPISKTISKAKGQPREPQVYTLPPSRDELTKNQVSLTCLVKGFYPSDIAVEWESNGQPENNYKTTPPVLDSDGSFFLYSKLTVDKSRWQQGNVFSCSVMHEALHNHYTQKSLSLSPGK
light: B1 light
Q: Which results are given for B3?
A: Relative EC50 ADCC V158 (high); target cells FlpIn293-hCD163 [1]: 1.4 relative (EC50 OS001/EC50 construct); Relative EC50 ADCC F158 (low); target cells FlpIn293-hCD163 [2]: 1.2 relative (EC50 OS001/EC50 construct)

B4: OS018 (antibody, human IgG1, kappa)
heavy: not shown
light: B1 light
notes: also called IgG1 HC D72E
Q: How did the Kd [3] turn out when B4 was run?
A: The Kd was 510 pM.

Q: And the koff [3]?
A: Its koff is 0.00033 s⁻¹.

Q: What about the kon [3] of the same binder?
A: Its kon is 650000 M⁻¹ s⁻¹.

B5: OS005 (antibody, human IgG1, kappa)
heavy: QVQLQESGPGLVKPSETLSLTCTVSGYSITSDYAWNWIRQFPGNKLEWMGYITYSGSTYYNPSLKSRVTISVDTSKNQFSLKLSSVTAADTATYYCVSGTYYFDYWGQGTTLTVSSASTKGPSVFPLAPSSKSTSGGTAALGCLVKDYFPEPVTVSWNSGALTSGVHTFPAVLQSSGLYSLSSVVTVPSSSLGTQTYICNVNHKPSNTKVDKKVEPKSCDKTHTCPPCPAPELVGGPSVFLLPPKPKDTLMISRTPEVTCVVVDVSHEDPEVKFNWYVDGVEVHNAKTKPPEEQYNSTLRVVSVLTVLHQDWLNGKEYKCKVSNKALPAPIEKTISKAKGQPREPQVYTLPPSRDELTKNQVSLTCLVKGFYPSDIAVEWESNGQPENNYKTTPLVLDSDGSFFLYSKLTVDKSRWQQGNVFSCSVMHEALHNHYTQKSLSLSPGK
light: B1 light
Q: How did the “Relative EC50 ADCC V158 (high)” value [1] turn out when B5 was run?
A: Its value is 2.2 relative (EC50 OS001/EC50 construct).

Q: And the “Relative EC50 ADCC F158 (low)” value [2]?
A: The value was 5.4 relative (EC50 OS001/EC50 construct).

Q: And the “Relative EC50 ADCC (CD16 V158); target cells M2c macrophages” value (shortened to “Relative EC50 ADCC (CD16 V158)”) [4]?
A: Its value is 23 relative (normalized to OS001).

Q: What about the “Relative EC50 ADCC (CD16 F158); target cells M2c macrophages” value (“Relative EC50 ADCC (CD16 F158)” below) [5] of the same binder?
A: The value was 13 relative (normalized to OS001).

B6: OS009 (antibody, human IgG1, kappa)
heavy: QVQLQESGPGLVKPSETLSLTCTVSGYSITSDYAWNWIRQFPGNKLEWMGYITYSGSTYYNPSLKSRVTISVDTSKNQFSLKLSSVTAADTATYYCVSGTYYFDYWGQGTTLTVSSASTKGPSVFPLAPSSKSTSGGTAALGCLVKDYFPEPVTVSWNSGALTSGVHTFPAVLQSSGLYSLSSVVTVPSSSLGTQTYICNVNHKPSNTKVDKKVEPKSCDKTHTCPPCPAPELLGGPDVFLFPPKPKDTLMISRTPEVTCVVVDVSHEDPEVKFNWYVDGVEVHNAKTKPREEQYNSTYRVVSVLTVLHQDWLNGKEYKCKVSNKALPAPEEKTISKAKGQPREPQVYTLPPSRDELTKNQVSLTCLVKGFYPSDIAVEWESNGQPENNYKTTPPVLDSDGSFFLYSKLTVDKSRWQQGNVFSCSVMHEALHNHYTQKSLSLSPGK
light: B1 light
Q: For B6, which “Relative EC50 ADCC V158 (high)” value [1] is on record?
A: The value was 7.6 relative (EC50 OS001/EC50 construct).

Q: What about the “Relative EC50 ADCC F158 (low)” value [2] of the same binder?
A: The value was 7 relative (EC50 OS001/EC50 construct).

Q: And the “EC50 of PBMC mediated cytotoxicity in CD163 expressing macrophages” value [6]?
A: Its value is 2.8 ng/mL.

Q: What about the “Relative EC50 ADCC (CD16 V158)” value [4] of the same binder?
A: Its value is 23 relative (normalized to OS001).

Q: And the “Relative EC50 ADCC (CD16 F158)” value [5]?
A: The value was 12 relative (normalized to OS001).

B7: OS006 (antibody, human IgG1, kappa)
heavy: B5 heavy with V234L, S238D, L242F, P291R, L299Y, A329L, I331E, L395P
light: B1 light
Q: With B7 as the binder, how does the “Relative EC50 ADCC V158 (high)” value [1] read?
A: The value was 5.9 relative (EC50 OS001/EC50 construct).

Q: What about the “Relative EC50 ADCC F158 (low)” value [2] of the same binder?
A: The value was 2.5 relative (EC50 OS001/EC50 construct).

Q: What about the “Relative EC50 ADCC (CD16 V158)” value [4] of the same binder?
A: Its value is 26 relative (normalized to OS001).

Q: What about the “Relative EC50 ADCC (CD16 F158)” value [5] of the same binder?
A: Its value is 71 relative (normalized to OS001).

B8: OS003 (antibody, human IgG1, kappa)
heavy: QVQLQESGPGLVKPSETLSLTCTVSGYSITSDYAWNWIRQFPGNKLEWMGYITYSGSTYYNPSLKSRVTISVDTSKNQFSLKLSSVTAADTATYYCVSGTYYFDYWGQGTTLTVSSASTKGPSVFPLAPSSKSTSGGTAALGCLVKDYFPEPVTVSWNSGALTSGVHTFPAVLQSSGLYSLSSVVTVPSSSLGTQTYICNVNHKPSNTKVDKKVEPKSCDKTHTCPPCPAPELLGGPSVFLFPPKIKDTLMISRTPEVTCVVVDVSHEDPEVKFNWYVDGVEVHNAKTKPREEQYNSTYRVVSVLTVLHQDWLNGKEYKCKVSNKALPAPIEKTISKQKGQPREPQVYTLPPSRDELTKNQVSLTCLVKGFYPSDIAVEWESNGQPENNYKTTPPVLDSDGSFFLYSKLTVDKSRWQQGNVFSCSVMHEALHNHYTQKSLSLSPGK
light: B1 light
Q: How did the “Relative EC50 ADCC V158 (high)” value [1] turn out when B8 was run?
A: The value was 1.5 relative (EC50 OS001/EC50 construct).

Q: And the “Relative EC50 ADCC F158 (low)” value [2]?
A: The value was 1.3 relative (EC50 OS001/EC50 construct).

B9: OS008 (antibody, human IgG1, kappa)
heavy: B5 heavy with V234L, G235A, S238D, L242F, P291R, L299Y, A329L, I331E, L395P
light: B1 light
Q: B9 was tested. Which “Relative EC50 ADCC V158 (high)” value [1] did it give?
A: The value was 4.5 relative (EC50 OS001/EC50 construct).

Q: And the “Relative EC50 ADCC F158 (low)” value [2]?
A: The value was 3.2 relative (EC50 OS001/EC50 construct).

B10: OS002 (antibody, human IgG1, kappa)
heavy: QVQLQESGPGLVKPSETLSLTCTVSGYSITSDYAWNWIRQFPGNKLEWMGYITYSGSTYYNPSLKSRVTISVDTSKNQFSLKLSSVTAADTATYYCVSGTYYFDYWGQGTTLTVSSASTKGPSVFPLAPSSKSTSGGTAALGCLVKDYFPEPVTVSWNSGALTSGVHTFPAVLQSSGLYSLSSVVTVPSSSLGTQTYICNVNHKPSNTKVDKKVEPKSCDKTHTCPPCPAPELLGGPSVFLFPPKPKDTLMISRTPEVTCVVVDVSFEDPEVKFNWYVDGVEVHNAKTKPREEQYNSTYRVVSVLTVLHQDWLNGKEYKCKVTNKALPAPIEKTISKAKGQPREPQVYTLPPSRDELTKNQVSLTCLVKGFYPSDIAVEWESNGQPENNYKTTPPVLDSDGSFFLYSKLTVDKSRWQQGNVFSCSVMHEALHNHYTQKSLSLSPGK
light: B1 light
Q: Which “Relative EC50 ADCC V158 (high)” value [1] does the source give for B10 here?
A: The value was 0.9 relative (EC50 OS001/EC50 construct).

Q: What about the “Relative EC50 ADCC F158 (low)” value [2] of the same binder?
A: The value was 1.5 relative (EC50 OS001/EC50 construct).

B11: OS022 (antibody, human IgG1, kappa)
heavy: not shown
light: B1 light
modifications: afucosylated glycan (GlymaxX expression)
notes: IgG1, HC D72E, afucosylated; also called IgG1 HC D72E afucosylated
Q: How did the Kd [7] turn out when B11 was run?
A: Its Kd is 950 pM.

Q: What about the koff [7] of the same binder?
A: Its koff is 0.00049 s⁻¹.

Q: And the kon [7]?
A: Its kon is 520000 M⁻¹ s⁻¹.

B12: OS016 (antibody, human IgG1, kappa)
heavy: B5 heavy with V234L, G235A, L242F, S266E, H267F, P291R, L299Y, S323T, I331E, L395P
light: B1 light
Q: What does the source list for B12?
A: Relative EC50 ADCC V158 (high); target cells FlpIn293-hCD163 [1]: 3.7 relative (EC50 OS001/EC50 construct); Relative EC50 ADCC F158 (low); target cells FlpIn293-hCD163 [2]: 4 relative (EC50 OS001/EC50 construct)

B13: OS007 (antibody, human IgG1, kappa)
heavy: B5 heavy with V234L, G235A, S238D, L242F, P291R, L299Y, I331E, L395P
light: B1 light
Q: Which results are given for B13?
A: Relative EC50 ADCC V158 (high); target cells FlpIn293-hCD163 [1]: 4 relative (EC50 OS001/EC50 construct); Relative EC50 ADCC F158 (low); target cells FlpIn293-hCD163 [2]: 5.6 relative (EC50 OS001/EC50 construct)

B14: OS001 (antibody, human IgG1, kappa)
heavy: not shown
light: B1 light
Q: Which results are given for B14?
A: Relative EC50 ADCC V158 (high); target cells FlpIn293-hCD163 [1]: 1 relative (EC50 OS001/EC50 construct); Relative EC50 ADCC F158 (low); target cells FlpIn293-hCD163 [2]: 1 relative (EC50 OS001/EC50 construct); Relative EC50 ADCC (CD16 V158); target cells M2c macrophages [4]: 1 relative (normalized to OS001); Relative EC50 ADCC (CD16 F158); target cells M2c macrophages [5]: 1 relative (normalized to OS001)

B15: OS019 (antibody, human IgG1, kappa)
heavy: not shown
light: B1 light with G89Q
notes: also called IgG1 LC G89Q
Q: What does the source list for B15?
A: Kd [3]: 410 pM; koff [3]: 0.00021 s⁻¹; kon [3]: 520000 M⁻¹ s⁻¹

B16: OS020 (antibody, human IgG1, kappa)
heavy: not shown
light: B1 light with G89Q
notes: IgG1, HC D72E and LC G89Q, wild type glycosylation; also called IgG1 HC D72E LC G89Q
Q: For B16, which Kd [3] is on record?
A: The Kd was 470 pM.

Q: And the koff [3]?
A: The koff was 0.00022 s⁻¹.

Q: What about the kon [3] of the same binder?
A: The kon was 470000 M⁻¹ s⁻¹.

B17: OS023 (antibody, human IgG1, kappa)
heavy: not shown
light: B1 light with G89Q
modifications: afucosylated glycan (GlymaxX expression)
notes: IgG1, HC D72E and LC G89Q, afucosylated; also called IgG1 HC D72E LC G89Q afucosylated
Q: What does the source list for B17?
A: Kd [7]: 800 pM; koff [7]: 0.00037 s⁻¹; kon [7]: 460000 M⁻¹ s⁻¹

B18: OS017 (antibody, human IgG1, kappa)
heavy: not shown
light: B1 light
modifications: afucosylated glycan (GlymaxX expression)
Q: What does the source list for B18?
A: Relative EC50 ADCC V158 (high); target cells FlpIn293-hCD163 [1]: 11.2 relative (EC50 OS001/EC50 construct); Relative EC50 ADCC F158 (low); target cells FlpIn293-hCD163 [2]: 17.6 relative (EC50 OS001/EC50 construct); EC50 of PBMC mediated cytotoxicity in CD163 expressing macrophages [6]: 2.6 ng/mL; Relative EC50 ADCC (CD16 V158); target cells M2c macrophages [4]: 39 relative (normalized to OS001); Relative EC50 ADCC (CD16 F158); target cells M2c macrophages [5]: 111 relative (normalized to OS001)

— EP4563596A1 (OncoSpear ApS, dated 2025)
